How the values were obtained:
human SIRPA_V1 protein [1] = biological target: T1, human SIRPA_V1 protein (human, UniProt P78324 31-504); test: blocking cell-based ELISA: peroxidase-labeled CD47-Fc (10,000 ng/mL) on 293α cells expressing SIRPA_V1; y axis = CD47-Fc signal in % of no antibody [i]
T1 construct: Expressed on 293α cells from pcDNA3.2 V5-DEST or pFLAG V5-DEST (FLAG-tagged) vectors; also called human SIRPA Variant 1; hSIRPA V1
Method: After the culture supernatant of the human SIRPA and monkey SIRPA expression vector-introduced 293α cells prepared in Examples 5)-1 and 5)-2, respectively, was removed, 50 μL per well of cD13 (IgG2 and IgG4pf), cF44 (four different constant regions IgG1, IgG2, IgG4p, and IgG4pf), and cF63 (IgG2 and IgG4pf) diluted with 5% FBS-containing PBS to final concentrations of 0 to 10,000 ng/mL were added to each of pcDNA3.2 V5-DEST-SIRPA_V1, pcDNA3.2 V5-DEST-monkey SIRPA, and pcDNA3.2 V5-DEST-introduced 293α cells, immediately followed by addition of 50 μL per well of peroxidase-labeled CD47-Fc prepared in 5% FBS-containing PBS at a final concentration of 10,000 ng/ml, and the mixture was allowed to stand at 4° C. for one hour. Thereafter, the SIRPA-CD47 binding inhibitory activity was evaluated in the same manner as in 1)-6-3.

human SIRPA_V1 protein [2] = biological target: T1, human SIRPA_V1 protein; test: cell-based ELISA on 293α cells expressing FLAG-tagged SIRPA_V1; Abs 490 normalized to FLAG tag
Method: (§1) The 293α cells [described in Example 1)-6] were prepared in a 10% FBS-containing DMEM medium to 5×10⁵ cells/mL. pFLAG V5-DEST-SIRPA_V1, pFLAG V5-DEST-SIRPA_V2, or pFLAG V5-DEST was introduced into the cells using Lipofectamine LTX (Invitrogen), followed by addition of 100 μL per well to a 96-well plate (Corning Incorporated), and cells were cultured overnight in the 10% FBS-containing DMEM medium at 37° C. under a 5% CO₂ condition. The obtained introduced cells were used for cell-based ELISA in a state that they adhered to each other. After the culture supernatant was removed, 50 μL per well of the cD13 (IgG2 and IgG4pf), cF44 (IgG1, IgG2, IgG4p, and IgG4pf), and cF63 (IgG2 and IgG4pf) antibodies prepared in Examples 3 and 4 were added to each of pFLAG V5-DEST-SIRPA_V1, pFLAG V5-DEST-SIRPA_V2, or pFLAG V5-DEST-introduced cells at final concentrations of 0 to 10,000 ng/mL, and the mixture was allowed to stand at 4° C. for one hour. Further, 50 μL per well of anti-FLAG M2 antibody (SIGMA) diluted with 5% FBS-containing PBS to a final concentration of 10,000 ng/mL was added to a well for detecting expression of each SIRPA construct, and the mixture was allowed to stand at 4° C. for one hour. The cells in the well were washed once with 5% FBS-containing PBS, followed by addition of Peroxidase AffiniPure F(ab′)₂ Fragment Goat Anti-Human IgG, Fcγ Fragment Specific (Jackson ImmunoResearch) diluted 1000-fold with 5% FBS-containing PBS, and the mixture was allowed to stand at 4° C. for one hour. The cells in the well were washed five times with 5% FBS-containing PBS, followed by addition of 100 μL per well of an OPD coloration solution [o-phenylenediamine dihydrochloride (Wako Pure Chemical Industries, Ltd.) and H₂O₂ were dissolved in an OPD solution (0.05 M trisodium citrate, 0.1 M disodium hydrogen phosphate dodecahydrate, pH 4.5) at 0.4 mg/mL and 0.6% (v/v), respectively]. A coloration reaction was performed with stirring occasionally, 100 μL per well of 1 M HCl was added to terminate the coloration reaction, and then absorbance at 490 nm was measured with a plate reader ARVO (PerkinElmer Inc.). Binding of the human chimeric anti-human SIRPA antibodies to each construct was standardized by expression of the FLAG tag.

human SIRPA_V2 protein [3] = biological target: T2, human SIRPA_V2 protein (human, UniProt P78324 31-504); test: blocking cell-based ELISA: peroxidase-labeled CD47-Fc (10,000 ng/mL) on 293α cells expressing SIRPA_V2; y axis = CD47-Fc signal in % of no antibody [ii]
T2 construct: Expressed on 293α cells from pcDNA3.2 V5-DEST or pFLAG V5-DEST (FLAG-tagged) vectors; also called human SIRPA Variant 2; ECD variant (full-length, amino acids 1 to 504)
T2 sequence (P78324 other isoform, or with tags, fused parts or gaps limits assumed): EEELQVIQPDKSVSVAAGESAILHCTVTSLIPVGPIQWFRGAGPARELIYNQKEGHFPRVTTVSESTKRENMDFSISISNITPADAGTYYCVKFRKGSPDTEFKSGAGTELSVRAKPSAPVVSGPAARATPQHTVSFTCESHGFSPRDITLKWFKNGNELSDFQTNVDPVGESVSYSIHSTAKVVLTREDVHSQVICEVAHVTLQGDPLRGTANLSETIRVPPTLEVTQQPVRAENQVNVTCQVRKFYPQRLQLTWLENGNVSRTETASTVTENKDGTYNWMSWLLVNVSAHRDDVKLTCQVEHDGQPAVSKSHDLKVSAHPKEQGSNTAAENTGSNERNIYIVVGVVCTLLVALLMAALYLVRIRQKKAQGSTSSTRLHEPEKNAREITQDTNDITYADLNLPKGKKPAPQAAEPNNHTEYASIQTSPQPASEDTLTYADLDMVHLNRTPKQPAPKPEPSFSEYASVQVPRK

human SIRPA_V2 protein [4] = biological target: T2, human SIRPA_V2 protein; test: cell-based ELISA on 293α cells expressing FLAG-tagged SIRPA_V2; Abs 490 normalized to FLAG tag
Method: as §1

human SIRPA_V1 protein [5] = biological target: T1, human SIRPA_V1 protein; test: blocking cell-based ELISA: peroxidase-labeled CD47-Fc (1 µg/mL) on 293α cells expressing SIRPA_V1
Method: After the culture supernatant of the human SIRPA_V1 or V2 expression vector-introduced 293 cells prepared in Example 9)-1 was removed, 50 μL per well of various anti-SIRPA antibodies or various control Human IgG diluted with 5% FBS-containing PBS to a final concentration of 0 to 10,000 ng/ml was added to each of pcDNA3.2 V5-DEST-SIRPA_V1 or V2-introduced 293α cells, immediately followed by addition of 50 µL per well of peroxidase-labeled CD47-Fc prepared with 5% FBS-containing PBS at 1 μg/mL, and the mixture was allowed to stand at 4° C. for one hour. Thereafter, the SIRPA-CD47 binding inhibitory activity was evaluated in the same manner as in 1)-6-3.

SIRPA_V1_IgV = biological target: T3, SIRPA_V1_IgV (human, UniProt P78324 31-149); test: SPR Biacore T200, antibody captured on anti-human IgG (Fc), SIRPA_V1_IgV as analyte (0.25 to 16 nM), 1:1 model
T3 construct: Secreted recombinant protein from FreeStyle 293F cells
T3 sequence (P78324 other isoform, or with tags, fused parts or gaps limits assumed): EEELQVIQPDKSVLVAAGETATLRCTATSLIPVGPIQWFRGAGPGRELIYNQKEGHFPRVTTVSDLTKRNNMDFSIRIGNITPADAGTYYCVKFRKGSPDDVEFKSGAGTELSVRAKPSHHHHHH
Method: The dissociation constants were measured by a capture method comprising capturing each antibody as a ligand to an Anti-Human IgG (Fc) antibody immobilized using Human Antibody Capture Kit (GE Healthcare Bioscience Corp.) and measuring an antigen as an analyte, using Biacore T200 (GE Healthcare Bioscience Corp.). HBS-EP+ (GE Healthcare Bioscience Corp.) was used as a running buffer, and CM5 (GE Healthcare Bioscience Corp.) was used as a sensor chip. Onto the chip, 2 μg/mL of various antibodies were added at 10 μL/min for 30 seconds, then a serially diluted solution (0.25 to 16 nM) of the human SIRPA protein as an antigen was added at a flow rate of 30 μL/min for 120 seconds, and subsequently the dissociation phase for 600 seconds was monitored. As a regenerant, 3 M magnesium chloride (GE Healthcare Bioscience Corp.) was added at a flow rate of 20 μL/min for 30 seconds. For data analysis, a binding rate constant (ka), a dissociation rate constant (kd), and a dissociation constant (KD; KD=kd/ka) were calculated using a 1:1 binding model.

human SIRPB = biological target: T4, human SIRPB (human, UniProt O00241 30-398); test: flow cytometry on CHO-K1 cells expressing FLAG-tagged human SIRPB; PE anti-human IgG; MFI standardized to secondary antibody alone
T4 construct: whole, on cells; FLAG-tagged (pFLAG V5-DEST), on CHO-K1 cells; also called SIRPβ1; signal regulatory protein β1
T4 sequence (O00241 30-398): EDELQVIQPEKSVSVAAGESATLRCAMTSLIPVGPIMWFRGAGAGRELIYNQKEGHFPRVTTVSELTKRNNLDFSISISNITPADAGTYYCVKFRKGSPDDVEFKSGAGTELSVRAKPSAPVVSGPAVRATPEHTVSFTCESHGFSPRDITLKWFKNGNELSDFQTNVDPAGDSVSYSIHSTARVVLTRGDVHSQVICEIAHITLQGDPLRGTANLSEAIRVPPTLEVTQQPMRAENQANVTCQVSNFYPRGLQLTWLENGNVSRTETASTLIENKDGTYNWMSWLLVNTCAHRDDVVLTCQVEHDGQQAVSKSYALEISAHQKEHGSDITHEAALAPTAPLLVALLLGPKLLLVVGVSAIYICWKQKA
Method: SIRPβ1 (signal regulatory protein β1: the amino acid sequence thereof is published as RefSeq accession number NP_006056) and SIRPγ (signal regulatory protein γ: the amino acid sequence thereof is published as RefSeq accession number NP_061026) are molecules belonging to the SIRPA family. In the present invention, “SIRPα” may be referred to as “SIRPA,” “SIRPβ1” may be referred to as […] and “SIRPγ” may be referred to as “SIRPG.” CHO-K1 cells were prepared in a 10% FBS-containing Ham's F-12K medium at 3.3×10⁵ cells/mL and cultured overnight at 37° C. under a 5% CO₂ condition. pFLAG V5-DEST-human SIRPβ, pFLAG V5-DEST-human SIRPG, or pFLAG V5-DEST was introduced into the cells using Lipofectamine LTX (Invitrogen), and cells were cultured in a 10% FBS-containing Ham's F-12K medium at 37° C. under a 5% CO₂ condition for 24 hours. The obtained introduced cells were collected and seeded on a 96-well plate. After the culture supernatant was removed, 100 μL per well of various anti-human SIRPA antibodies or various control human IgG was added to each of various gene introduced cells at a final concentration of 0 to 10,000 ng/mL, and the mixture was allowed to stand at 4° C. for 25 minutes. After the mixture was centrifuged, the supernatant was removed, and cells were washed twice with 5% FBS-containing PBS. After the mixture was centrifuged, the supernatant was removed, 50 μL per well of a 1/400 diluted solution of PE Mouse anti-Human IgG antibody (BioLegend) was added, and the mixture was allowed to stand at 4° C. for 25 minutes. After the mixture was centrifuged, the supernatant was removed, and cells were washed twice with 5% FBS-containing PBS.
After the mixture was centrifuged, and the supernatant was removed, cells were suspended in 100 μL per well of 1× BD Stabilizing Fixative (Becton Dickinson), and the cell count was measured by flow cytometry (FACS Canto II: Becton Dickinson). For data analysis, FlowJo (TreeStar) was used. Cells were characterized by detecting forward scattered (FSC) light and side-scattered (SSC) light, and then the mean fluorescence intensity of PE was calculated. Binding of various antibodies to the family molecules was calculated by standardizing the fluorescence intensity using the mean fluorescence intensity of a sample in which the secondary antibody alone was allowed to react.

T1 sequence (P78324 31-504 limits assumed): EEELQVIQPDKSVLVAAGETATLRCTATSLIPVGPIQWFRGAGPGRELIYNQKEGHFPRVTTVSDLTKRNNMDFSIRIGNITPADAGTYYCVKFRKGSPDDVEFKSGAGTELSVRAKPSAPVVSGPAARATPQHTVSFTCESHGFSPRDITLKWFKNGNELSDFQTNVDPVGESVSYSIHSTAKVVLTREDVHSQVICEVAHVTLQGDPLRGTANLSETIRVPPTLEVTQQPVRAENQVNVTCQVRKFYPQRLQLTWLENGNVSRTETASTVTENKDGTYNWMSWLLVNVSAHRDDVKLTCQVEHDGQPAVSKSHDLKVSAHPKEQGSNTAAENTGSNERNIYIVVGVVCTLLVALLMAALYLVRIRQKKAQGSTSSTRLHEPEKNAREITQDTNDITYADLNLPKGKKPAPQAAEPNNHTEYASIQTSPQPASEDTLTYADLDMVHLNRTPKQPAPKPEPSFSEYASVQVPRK

| Binder | IC50 (read off the curve) (human SIRPA_V1 protein [1]) [µg/mL] | EC50 (read off the curve) (human SIRPA_V1 protein [2]) [µg/mL] | IC50 (read off the curve) (human SIRPA_V2 protein [3]) [µg/mL] | EC50 (read off the curve) (human SIRPA_V2 protein [4]) [µg/mL] | IC50 (human SIRPA_V1 protein [5]) [µg/mL] | Kd (SIRPA_V1_IgV) [nM] | EC50 (read off the curve) (human SIRPB) [µg/mL] |
| --- | --- | --- | --- | --- | --- | --- | --- |
| cF44 (IgG1) (antibody, V domains shown, Human IgG1 constant region; also called cF44 IgG1 type) VH: EVQLVESGGGLVQPGRSLKLSCAASGFTFSNYYMAWVRQAPTKGLEWVTYITTGGGSTYFRDSVKGRFTISRDNAESTLYLQMDSLRSEDTATYYCTAANYGGSYFDYWGQGVMVTVSS VL: DVQMTQSPSNLAASPGESVSINCKASKSISKYLAWYQQKPGKANKLLIYSGSTLQSGTPSRFSGSGSGTDFTLTIRNLEPEDFGLYYCQQHNEYPPTFGAGTKLELK | ~0.4 | ~0.04 | ~0.4 | ~0.04 |  |  |  |
| OSE-172 (antibody, human IgG4 S228P, kappa, V domains shown, IgG4Pro heavy chain) VH: EVQLVQSGAEVKKPGESLRISCKASGYSFTSYWVHWVRQMPGKGLEWMGNIDPSDSDTHYSPSFQGHVTLSVDKSISTAYLQLSSLKASDTAMYYCVRGGTGTLAYFAYWGQGTLVTVSS VL: DVVMTQSPLSLPVTLGQPASISCRSSQSLVHSYGNTYLYWFQQRPGQSPRLLIYRVSNRFSGVPDRFSGSGSGTDFTLKISRVEAEDVGVYYCFQGTHVPYTFGGGTKVEIKR |  |  |  |  | 2.32 | 11.7 | ~0.04 |

Next, values leading:

| IC50 (read off the curve) (human SIRPA_V1 protein [1]) [µg/mL] | EC50 (read off the curve) (human SIRPA_V1 protein [2]) [µg/mL] | IC50 (read off the curve) (human SIRPA_V2 protein [3]) [µg/mL] | EC50 (read off the curve) (human SIRPA_V2 protein [4]) [µg/mL] | IC50 (human SIRPA_V1 protein [5]) [µg/mL] | Kd (SIRPA_V1_IgV) [nM] | EC50 (read off the curve) (human SIRPB) [µg/mL] | Binder |
| --- | --- | --- | --- | --- | --- | --- | --- |
| ~0.5 | ~0.05 | ~0.4 | ~0.05 |  |  |  | cF44 (IgG4p) (antibody, V domains shown, Human IgG4p (PRO mutation) constant region; also called cF44 IgG4p type) VH: EVQLVESGGGLVQPGRSLKLSCAASGFTFSNYYMAWVRQAPTKGLEWVTYITTGGGSTYFRDSVKGRFTISRDNAESTLYLQMDSLRSEDTATYYCTAANYGGSYFDYWGQGVMVTVSS VL: DVQMTQSPSNLAASPGESVSINCKASKSISKYLAWYQQKPGKANKLLIYSGSTLQSGTPSRFSGSGSGTDFTLTIRNLEPEDFGLYYCQQHNEYPPTFGAGTKLELK |
| ~0.4 | ~0.04 | ~0.3 | ~0.04 |  |  |  | cF44 (IgG2) (antibody, V domains shown, Human IgG2 constant region; also called cF44 IgG2 type) VH: EVQLVESGGGLVQPGRSLKLSCAASGFTFSNYYMAWVRQAPTKGLEWVTYITTGGGSTYFRDSVKGRFTISRDNAESTLYLQMDSLRSEDTATYYCTAANYGGSYFDYWGQGVMVTVSS VL: DVQMTQSPSNLAASPGESVSINCKASKSISKYLAWYQQKPGKANKLLIYSGSTLQSGTPSRFSGSGSGTDFTLTIRNLEPEDFGLYYCQQHNEYPPTFGAGTKLELK |

From patent US20260098102A1 (NATIONAL UNIVERSITY CORPORATION KOBE UNIVERSITY, published 2026)
